Values of other authors, collected in publication PMC5023690.

What was measured:
[1] = biological target: ONE-GC M836-C1110 (Rattus norvegicus) (UniProt P51839); assay: SPR; given as Ka
[2] = biological target: ONE-GC M836-C1110 (Rattus norvegicus) (UniProt P51839); assay: SPR

Sequence of UniProt P51839 (P51839 836-1110): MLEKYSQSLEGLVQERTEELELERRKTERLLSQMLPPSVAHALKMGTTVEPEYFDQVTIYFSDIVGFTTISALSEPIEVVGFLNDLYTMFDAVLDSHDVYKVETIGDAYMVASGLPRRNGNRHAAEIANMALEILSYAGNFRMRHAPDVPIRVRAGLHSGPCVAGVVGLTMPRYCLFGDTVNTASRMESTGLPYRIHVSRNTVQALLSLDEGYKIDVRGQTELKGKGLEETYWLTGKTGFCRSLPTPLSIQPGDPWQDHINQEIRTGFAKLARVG

Question: With Frq (frequenin) (from UniProt P62166) as the substance, how does the Kd [1] read?
Answer: 0.426 µM

Question: And the Kd [2]?
Answer: 0.43 µM
